Experimental data taken from the supplement of paper PMC10567573.

B1: KCNA3 (parent)
chain: GERVVINISGLRFETQLKTLCQFP
B2: ZNF649 (parent)
chain: EHERAHRGEKPHGCSLCGKAFYKR

Variants of: B1
Test: protein stability index of a GFP-peptide fusion (GPS, HEK-293T) (PSI 1-6); higher = more stable
Details: c terminus: a fixed tail appended
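Note: lentivirally expressed fusions sorted by FACS into six bins by GFP to DsRed ratio, PSI derived from sequencing read proportions per bin multiplied by bin number.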

Row | Variant | protein stability index
1 | GELVVINISGLRFETQLKTLCQFP | 2.75
2 | GEDVVINISGLRFETQLKTLCQFP | 2.44
3 | GECVVINISGLRFETQLKTLCQFP | 2.36
4 | GEHVVINISGLRFETQLKTLCQFP | 1.04
5 | GEMVVINISGLRFETQLKTLCQFP | 4.26
6 | GESVVINISGLRFETQLKTLCQFP | 2.16
7 | GEKVVINISGLRFETQLKTLCQFP | 2.73
8 | GEPVVINISGLRFETQLKTLCQFP | 2.26
9 | GETVVINISGLRFETQLKTLCQFP | 3.87
10 | GEQVVINISGLRFETQLKTLCQFP | 3.4
11 | GEYVVINISGLRFETQLKTLCQFP | 3.34
12 | GERVVINISGLRCETQLKTLCQFP | 2.83
13 | GERVVINISGLRTETQLKTLCQFP | 1.56
14 | GERVVINISGLREETQLKTLCQFP | 2.14
15 | GERVVINISGLRLETQLKTLCQFP | 1.06
16 | GERVVINISGLRQETQLKTLCQFP | 1.87
17 | GERVVINISGLRKETQLKTLCQFP | 1.67
18 | GERVVINISGLRVETQLKTLCQFP | 2.58
19 | GERVVINISGLRSETQLKTLCQFP | 1.97
20 | GERVVINISGLRGETQLKTLCQFP | 2.14
21 | GERVVINISGLRDETQLKTLCQFP | 1.48
22 | GERVVINISGLRNETQLKTLCQFP | 1.26
23 | GERVVINISGLRMETQLKTLCQFP | 2.64

Row | Variant | protein stability index
24 | GERVVINISGLRAETQLKTLCQFP | 1.45
25 | GERVVINISGLRPETQLKTLCQFP | 2.27
26 | GERVVINISGLRIETQLKTLCQFP | 2.7
27 | GERVVINKSGLRFETQLKTLCQFP | 1.97
28 | GERVVINASGLRFETQLKTLCQFP | 1.67
29 | GERVVINESGLRFETQLKTLCQFP | 3.02
30 | GERVVINYSGLRFETQLKTLCQFP | 2
31 | GERVVINNSGLRFETQLKTLCQFP | 2.53
32 | GERVVINDSGLRFETQLKTLCQFP | 2.82
33 | GERVVINCSGLRFETQLKTLCQFP | 2.62
34 | GERVVINQSGLRFETQLKTLCQFP | 2.12
35 | GERVVINPSGLRFETQLKTLCQFP | 3.11
36 | GERVVINHSGLRFETQLKTLCQFP | 2.55
37 | GERVVINMSGLRFETQLKTLCQFP | 1.65
38 | GERVVINSSGLRFETQLKTLCQFP | 1.86
39 | GERVVINTSGLRFETQLKTLCQFP | 2.17
40 | GERVVINGSGLRFETQLKTLCQFP | 2.23
41 | GERVVINFSGLRFETQLKTLCQFP | 2.85
42 | GERVVINVSGLRFETQLKTLCQFP | 1.28
43 | GERVVINRSGLRFETQLKTLCQFP | 1.83
44 | GERVVINWSGLRFETQLKTLCQFP | 1.76
45 | GERVVINISDLRFETQLKTLCQFP | 1.47
46 | GERVVINISLLRFETQLKTLCQFP | 3.08

Row | Variant | protein stability index
47 | GERVVINISVLRFETQLKTLCQFP | 1
48 | GERVVINISFLRFETQLKTLCQFP | 2.81
49 | GERVVINISTLRFETQLKTLCQFP | 2.62
50 | GERVVINISILRFETQLKTLCQFP | 1.81
51 | GERVVINISELRFETQLKTLCQFP | 2.8
52 | GERVVINISRLRFETQLKTLCQFP | 1.26
53 | GERVVINISPLRFETQLKTLCQFP | 4.02
54 | GERVVINISNLRFETQLKTLCQFP | 2.35
55 | GERVVINISGLRFVTQLKTLCQFP | 3
56 | GERVVINISGLRFQTQLKTLCQFP | 1.04
57 | GERVVINISGLRFMTQLKTLCQFP | 3.03
58 | GERVVINISGLRFKTQLKTLCQFP | 2.42
59 | GERVVINISGLRFDTQLKTLCQFP | 2.37
60 | GERVVINISGLRFRTQLKTLCQFP | 1.89
61 | GERVVINISGLRFTTQLKTLCQFP | 1.83
62 | GERVVINISGLRFGTQLKTLCQFP | 2.74
63 | GERVVINISGLRFHTQLKTLCQFP | 3.28
64 | GERVVINISGLRFPTQLKTLCQFP | 1
65 | GERVVINISGLRFNTQLKTLCQFP | 2.08
66 | GLRVVINISGLRFETQLKTLCQFP | 3.35
67 | GQRVVINISGLRFETQLKTLCQFP | 3.74
68 | GTRVVINISGLRFETQLKTLCQFP | 2.21
69 | GPRVVINISGLRFETQLKTLCQFP | 4.1

Row | Variant | protein stability index
70 | GMRVVINISGLRFETQLKTLCQFP | 2.93
71 | GNRVVINISGLRFETQLKTLCQFP | 2.26
72 | GGRVVINISGLRFETQLKTLCQFP | 2.35
73 | GHRVVINISGLRFETQLKTLCQFP | 1.45
74 | GKRVVINISGLRFETQLKTLCQFP | 2.2
75 | GFRVVINISGLRFETQLKTLCQFP | 1.98
76 | GERVVPNISGLRFETQLKTLCQFP | 3.15
77 | GERVVRNISGLRFETQLKTLCQFP | 2.21
78 | GERVVNNISGLRFETQLKTLCQFP | 3.47
79 | GERVVSNISGLRFETQLKTLCQFP | 2.86
80 | GERVVTNISGLRFETQLKTLCQFP | 2.75
81 | GERVVCNISGLRFETQLKTLCQFP | 1.38
82 | GERVVHNISGLRFETQLKTLCQFP | 1.78
83 | GERVVDNISGLRFETQLKTLCQFP | 2.46
84 | GERVVMNISGLRFETQLKTLCQFP | 1.32
85 | GERVVYNISGLRFETQLKTLCQFP | 1.33
86 | GERVVQNISGLRFETQLKTLCQFP | 3.56
87 | GERVVENISGLRFETQLKTLCQFP | 2.52
88 | GERVVANISGLRFETQLKTLCQFP | 2.21
89 | GERVVGNISGLRFETQLKTLCQFP | 1.74
90 | GERVVKNISGLRFETQLKTLCQFP | 2.68

Variants of: B2
Test: as above
Details: c terminus: a fixed tail appended

Row | Variant | protein stability index
91 | EHERAHRGEKPHGCSLPGKAFYKR | 3.85
92 | EHERAHRGEKGHGCSLCGKAFYKR | 1.55
93 | EHERAHRGEKPHGCSLCGKACYKR | 2.13
94 | EHERAHLGEKPHGCSLCGKAFYKR | 1.48
